Measurements reported in PMC2702000 (PLoS Pathogens, 2009).

Columns and labels:
[1] = target: the molecule itself; test: AUC
[2] = target: the molecule itself; test: solution NMR structure (inter-monomer NOEs, PRE, RDCs)

B1: synthetic ETM spanning residues 7-42 of SARS-CoV E (peptide)
chain: EETGTLIVNSVLLFLAFVVFLLVTLAILTALRLCAY
[1]
  stoichiometry N: 5

B2: full length SARS-CoV E protein (natural protein)
chain: MYSFVSEETGTLIVNSVLLFLAFVVFLLVTLAILTALRLCAYCCNIVNVSLVKPTVYVYSRVKNLNSSEGVPDLLV
[1]
  stoichiometry N: 5

B3: ETM peptide, transmembrane domain of SARS-CoV E (residues 8-38) (peptide)
chain: ETGTLIVNSVLLFLAFVVFLLVTLAILTALR
[2]
  binding result: binds
